Experimental data from PMC6395706, “Unique properties of PTEN-L contribute to neuroprotection in response to ischemic-like stress” (Scientific Reports, 2019).
One block for each molecule: values may come before it.

Legend:
[1] = target: endogenous PTEN-L (mouse (endogenous in primary cortical neurons)); test: proximity ligation; Duolink PLA with anti-GAB2 and anti-PTEN-L antibodies in fixed, permeabilised primary neurons at DIV 9 treated with 50 µM glutamate for 60 min; proximities below 40 nm
PTEN-L:EGFP = target: T1, PTEN-L:EGFP (human, UniProt P60484-2 1-576); test: as above; conditions: partners not purified
T1 construct: human PTEN-L (PTENα), the long translational variant of PTEN with 173 additional N-terminal residues (aa 1-173 unique, aa 174-576 shared with PTEN); gene synthesis with an ATG start codon replacing the alternative CTG start; PCR primers run from the start codon to the last codon before the spacer; A Gly-Gly-Thr-Gly-Gly spacer precedes the C-terminal EGFP; Cloned in the lentiviral transfer vector …

fold decrease of PLA interaction complexes, glutamate against PBS [1]: 3.98 fold
Molecule: GRB2-associated-binding protein 2 (from UniProt Q9Z1S8 1-665) (natural protein)

fold decrease of PLA interaction complexes, glutamate against PBS (PTEN-L:EGFP): 4.61 fold
B1: GRB2-associated-binding protein 2 (natural protein, UniProt Q9Z1S8 1-665, looked up)
chain: MSGGGGDDVVCTGWLRKSPPEKKLRRYAWKKRWFILRSGRMSGDPDVLEYYKNEHSKKPLRIINLNLCEQVDAGLTFNKKELQDSFVFDIKTSERTFYLVAETEADMNKWVQSICQICGFNQAEESTDSLRNLSSASHGPRSSPAEFSSSQHLLRERKSSAPSHSSQPTLFTFEPPVSSHMQPTLSTSAPQEYLYLHQCISRRTENARSASFSQGTRQKSDTAVQKLAQSNGHCINGVGGQVHGFYSLPKPSRHNTEFKDSTYDLPRSLASHGHTKSSLTGSETDNEDVYTFKMPSNTLCRELGDLLVDNMDVPTTPLSAYQIPRTFTLDKNHNAMTVATPGDSAIAPPPRPPKPSQAETSQWGSIQQRPPISENSRSVAATIPRRNTLPAMDNSRLHRASSCETYEYPARGSGESASWSAEPPGKTAVGRSNSASSDDNYVPMNPGSSTLLAMERPGDNSQSVYIPMSPGPHHFDPLGYPSTALPIHRGPSRGSEIQPPPVNRNLKPDRKAKPTPLDLRNNTVIDELPFKSPVTKSWSRINHTFNSSSSQYCRPISTQSITSTDSGDSEENYVPMQNPVSASPVPSGTNSPAPKKSTGSVDYLALDFQPGSPSPHRKPSTSSVTSDEKVDYVQVDKEKTQALQNTMQEWTDVRQSSEPSKGAKL
notes: also called Gab2; GAB2; source: endogenous, mouse primary cortical neurons; in cytosolic or nuclear fractions, or in fixed cells
